Laboratory results: US20260258472A1

What was measured:
[1] = target: Human SOD1 in sporadic ALS (sALS) spinal cord homogenate (human) (UniProt P00441); test: immunoprecipitation with antibody-linked magnetic beads; immunoblot of the flow-through of sALS patient 4 spinal cord homogenate
[2] = target: Human SOD1 in sporadic ALS (sALS) spinal cord homogenate (human) (UniProt P00441); test: cell-based or functional assay

UniProt P00441, sequence (P00441 2-154 limits assumed): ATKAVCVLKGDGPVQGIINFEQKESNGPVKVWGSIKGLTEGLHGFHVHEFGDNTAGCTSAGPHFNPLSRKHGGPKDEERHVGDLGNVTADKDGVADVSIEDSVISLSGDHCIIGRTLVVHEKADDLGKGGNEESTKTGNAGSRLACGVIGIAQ

| percent SOD1 remaining in flow-through compared to input [1] [%] | 50% ThT (RFU), SOD1 RT-QuIC after immunodepletion [2] [RFU] | Lag phase (hours), SOD1 RT-QuIC after immunodepletion [2] [h] | Substance |
| --- | --- | --- | --- |
| 75 | 32100 | 70.2 | Isotype control antibody mIgG2b (ThermoFisher #MA110427) |
| 23 | 27300 | 62.7 | Mouse-anti-SOD1 antibody, clone O98B10 (pan-SOD1; BioLegend #850702) |
| 28 | 27600 | 57.6 | Isotype control antibody mIgG2a (ThermoFisher #MA110418) |
| 21 | 21900 | 62.4 | Anti-human SOD1 antibody C4F6 (misfolded SOD1; MediMabs #MM-0070-2-P) |
